# B1: RSPH3 (parent)
# chain: FIPAKTGKDVATQILEGELFDFDL
# B2: WDR88 (parent)
# chain: LLTITKAHSNAISNCCFTFSGHFL
# Variants of: B1
# Assay: protein stability index of a GFP-peptide fusion (GPS, HEK-293T) (PSI 1-6); higher = more stable
# Settings: c terminus: a fixed tail appended
# 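Note: lentivirally expressed fusions sorted by FACS into six bins by GFP to DsRed ratio, PSI derived from sequencing read proportions per bin multiplied by bin number.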
row,Variant,protein stability index
1,F1N,4.98
2,F1V,3.54
3,F22M,2.54
4,F22L,1.98
5,I2S,2.84
6,I2K,3.86
7,K5Q,2.21
8,K8G,1.71
9,K8R,2.37
10,K8P,2.15
11,K8V,2.52
12,G7Y,1.88
13,G7W,2.83
14,G7F,1.45
15,T6V,1.6
16,T6M,1.59
17,E18Y,1.59
18,E18S,2
19,E18N,2.38
20,E18W,1.95
21,A4P,1.55
22,A4G,2.48
23,A4V,2.28
24,V10L,2.63
25,V10D,2.28

row,Variant,protein stability index
1,V10R,1.58
2,F20Q,2.44
3,F20Y,2.01
4,F20L,2.25
5,F20V,2.71
6,D23S,2
7,D23G,2.02
8,D23Y,2.24
9,G17L,1.48
10,G17W,1.95
11,L19P,1.98
12,L19R,1.6
13,L19F,1.7
14,Q13W,1.95
15,Q13L,2.38
16,Q13M,1.67
17,I14V,2.2
18,I14C,1.99
19,I14P,2.21
20,I14G,1.49
21,I14K,1.72
22,I14T,2.79
23,E16F,3.82
24,E16L,1.73
25,E16R,2.46

row,Variant,protein stability index
1,E16C,2.32
2,A11F,2.13
3,A11C,2
4,A11E,2.35
5,P3C,1.72
6,P3N,2.24
7,T12M,2.18
8,T12D,1.56
9,T12K,1.49
10,T12I,1.85
11,L15E,2.79
12,L15T,1.66
13,L15R,2.75
14,L24E,2.78
15,D21A,2.33
16,D21L,3
17,D21G,2.24
18,D21I,2.72
19,D21Q,1.53
20,D21V,1.66
21,D9G,2.23
22,D9S,1.82
23,D9R,2.06
24,D9K,1.65

# Variants of: B2
# Assay: as above
# Settings: c terminus: a fixed tail appended
row,Variant,protein stability index
1,I4G,1.9
2,I4M,3.12
3,I4K,2.5
4,I4P,2.15
5,I4Q,1.8
6,I4R,2.4
7,I4S,2.5
8,I4E,1.99
9,I4T,2.8
10,I4L,2.9
11,I4Y,2.38
12,I4H,2.36
13,I4D,3.07
14,I4F,3.68
15,I4N,2.89
16,I4V,3.9
17,I4A,2.47
18,I4C,2.19
19,L1Y,4.04
20,L1E,1.76
21,L1K,1.85
22,L1N,2.47
23,L1Q,1.59
24,L1G,1.49

row,Variant,protein stability index
1,L1W,3.03
2,L1T,3.09
3,L1P,2.81
4,L1I,4.01
5,L1H,2.46
6,L1M,1.95
7,L1R,2.75
8,L1F,2.52
9,L1V,2.93
10,L1C,2.81
11,L1S,1.76
12,L1A,3.61
13,L1D,1.67
14,L2C,2.18
15,L2R,2.41
16,L2Y,2.1
17,L2P,2.12
18,L2K,2.85
19,L2G,2.01
20,L2N,2.82
21,L2S,2.4
22,L2D,1.4
23,L2W,3.22
24,L2F,2.44

row,Variant,protein stability index
1,L2V,2.33
2,L2H,2.28
3,L2I,3.28
4,L2T,2.71
5,L2A,3.15
6,L2Q,2.75
7,L2E,1.57
8,L2M,2.53
9,K6L,3.35
10,K6T,2.78
11,K6C,2.9
12,K6H,3.03
13,K6N,3.18
14,K6D,1.83
15,K6Y,1.83
16,K6Q,2.29
17,K6V,2.84
18,K6M,2.66
19,K6P,3.02
20,K6I,2.88
21,K6E,2.67
22,K6A,2.8
23,K6G,2.44
24,K6W,3.12

row,Variant,protein stability index
1,K6S,2.44
2,K6R,2.72
3,K6F,3.35
4,H8A,3.08
5,T3E,2.47
6,T3H,2.57
7,T3L,2.37
8,T3F,3.14
9,T3N,3
10,T3C,2.84
11,T3A,2.93
12,T3Q,3.3
13,T3P,2.97
14,T3Y,2.92
15,T3I,2.74
16,T3V,3.68
17,T3S,3.22
18,T3W,2.29
19,T3M,3.13
20,T3G,1.94
21,T3D,2.61
